According to patent US20210221885A1 (NANJING LEADS BIOLABS, published 2021):

T1: Human TIM-3 protein (Acrobiosystems, Cat#TM3-H5229) (human, UniProt Q8TDQ0 22-200)
T1 construct: Bought protein; also called recombinant human TIM-3; TIM-3 recombinant protein
T1 sequence (looked up): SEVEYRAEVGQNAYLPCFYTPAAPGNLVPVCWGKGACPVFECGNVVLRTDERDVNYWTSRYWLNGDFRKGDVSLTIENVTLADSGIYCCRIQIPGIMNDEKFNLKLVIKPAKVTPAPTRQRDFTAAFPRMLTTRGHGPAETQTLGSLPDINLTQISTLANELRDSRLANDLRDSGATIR

T2: Human TIM-4 (Sino biological, Cat#12161-H08H) (human, UniProt Q96H15 25-315)
T2 construct: Bought protein; construct not described
T2 sequence (looked up): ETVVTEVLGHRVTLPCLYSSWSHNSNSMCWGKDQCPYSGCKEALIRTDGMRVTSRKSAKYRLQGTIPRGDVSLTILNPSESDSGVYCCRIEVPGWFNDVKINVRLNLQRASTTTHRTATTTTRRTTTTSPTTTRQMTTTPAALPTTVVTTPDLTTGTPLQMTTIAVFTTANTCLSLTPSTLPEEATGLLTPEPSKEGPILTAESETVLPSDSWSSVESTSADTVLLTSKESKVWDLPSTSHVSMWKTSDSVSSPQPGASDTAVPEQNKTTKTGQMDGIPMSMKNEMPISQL

T3: Human TIM-1 (Sino biological, Cat#11051-HNCH) (human, UniProt Q96D42 21-295, limits assumed)
T3 construct: Bought protein; construct not described
T3 sequence (looked up): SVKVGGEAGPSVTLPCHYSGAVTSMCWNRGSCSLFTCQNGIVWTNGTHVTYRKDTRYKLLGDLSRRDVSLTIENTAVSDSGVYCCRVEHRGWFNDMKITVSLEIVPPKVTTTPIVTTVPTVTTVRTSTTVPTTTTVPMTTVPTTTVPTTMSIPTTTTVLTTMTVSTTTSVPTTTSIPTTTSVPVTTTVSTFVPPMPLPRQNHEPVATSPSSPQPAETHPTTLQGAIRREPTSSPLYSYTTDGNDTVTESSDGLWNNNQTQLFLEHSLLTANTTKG

T4: Eu3+ cryptate labeled TIM3 (Cisbio kit, cat# 63ADK000CTLPEB) (human, UniProt Q8TDQ0 22-202, limits assumed, Eu3+ cryptate label)
T4 construct: Kit reagent; construct not described; also called Tim3-EuK protein; Tim3-EuK
T4 sequence (looked up): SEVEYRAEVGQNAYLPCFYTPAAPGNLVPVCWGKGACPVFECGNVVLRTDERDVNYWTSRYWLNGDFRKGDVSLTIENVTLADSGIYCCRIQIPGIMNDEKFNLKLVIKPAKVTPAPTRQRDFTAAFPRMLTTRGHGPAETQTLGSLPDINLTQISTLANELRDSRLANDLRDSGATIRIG

T5: human TIM-3 stably expressed on CHO-K1 cells (human, UniProt Q8TDQ0 22-301)
T5 construct: whole, on cells; also called CHO-K1-TIM-3; cell surface TIM-3
T5 sequence (looked up): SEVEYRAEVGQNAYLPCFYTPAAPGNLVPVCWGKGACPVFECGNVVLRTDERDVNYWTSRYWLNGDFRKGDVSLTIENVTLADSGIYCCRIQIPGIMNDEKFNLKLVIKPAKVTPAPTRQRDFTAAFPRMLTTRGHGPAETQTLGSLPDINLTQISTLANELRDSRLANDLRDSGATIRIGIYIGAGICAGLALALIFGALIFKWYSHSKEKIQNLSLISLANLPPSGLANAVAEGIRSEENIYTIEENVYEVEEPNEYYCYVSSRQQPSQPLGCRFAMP


Columns and labels:
[1] = target: T1, Human TIM-3 protein (Acrobiosystems, …); test: SPR, Biacore T200; antibody captured on anti-human IgG (Fc), human TIM-3 injected at 1.56-50 nM; 1:1 Langmuir fit
Protocol: The kinetic binding activity of anti-TIM-3 antibodies to human TIM-3 (Acrobiosystems, Cat#TM3-H5229) was measured by surface plasmon resonance using a Biacore® T200 system (Biacore, GE Healthcare).
Approximately 6800 RU of Anti-Human IgG (Fc) antibody (GE Catalog # BR-1008-39) was immobilized via amine coupling chemistry onto a CMS sensor chip. […] HBS-EP+ buffer was used as the running buffer. Varying concentrations of human TIM-3 protein, ranging from 1.56 nM to 50 nM, were injected over the antibody surfaces. Following each injection cycle, the CMS chip surface was regenerated using injection of 3M magnesium chloride solution. Background subtraction binding sensorgrams were used for analyzing the rate of association Ka and dissociation Kd, and the equilibrium dissociation constant KD. The resulting data sets were fitted with a 1:1 Langmuir Binding Model using the Biacore T200 evaluation software.

[2] = target: T2, Human TIM-4 (Sino biological, …); test: ELISA, human TIM-4 coated, serially diluted antibody
Protocol: (§1) After blocking, the plates were washed three times with PBST (PBS containing 0.05% Tween20). […] After binding, the plates were washed three times with PBST, incubated for one hour at 37° C. with peroxidase-labeled donkey anti-human IgG (Jackson Immuno Research) diluted 1/15,000 in binding buffer, washed again, developed with TMB and stopped with 1M H₂SO₄.
(§2) The absorbance at 450 nm-620 nm was determined.

[3] = target: T3, Human TIM-1 (Sino biological, …); test: ELISA, human TIM-1 coated, serially diluted antibody
Protocol: as §1, §2

[4] = target: T1, Human TIM-3 protein (Acrobiosystems, …); test: ELISA, human TIM-3 coated at 1 ug/mL, detection with peroxidase-labeled anti-human IgG, OD450-620; the unit is that of the concentration axis
Protocol: (§3) An ELISA assay was used for determination of the relative binding activity of antibodies to recombinant human TIM-3.
(§4) Human TIM-3 protein (Acrobiosystems, Cat#TM3-H5229) in carbonate buffer (pH 9.6, 1.59 g sodium carbonate and 2.93 g sodium bicarbonate dissolved in 1L water) was immobilized onto 96-well plates at 1μg/mL by incubation overnight at 4° C. The plates were then blocked with 1% BSA in PBS for one hour at 37° C. After blocking, the plates were washed three times with PBST (PBS containing 0.05% Tween20). […] After binding, the plates were washed three times with PBST, incubated for one hour at 37° C. with peroxidase-labeled donkey anti-human IgG (Jackson Immuno Research) diluted 1/15,000 in binding buffer, washed again, developed with TMB and stopped with 1M H₂SO₄.
as §2

[5] = target: T4, Eu3+ cryptate labeled TIM3 (Cisbio kit, …); test: HTRF blocking assay (Cisbio kit), antibody added to a mixture of Tim3-EuK and Tag-Gal9; blocked ligand galectin-9; the unit is that of the concentration axis
Protocol: The resultant mixture was incubated for 1 h at room temperature and then the fluorescence emission was read.

[6] = target: T5, human TIM-3 stably expressed on CHO-K1 …; test: flow cytometry on CHO-K1-TIM-3 cells, detection with PE anti-human IgG Fc, MFI; the unit is that of the concentration axis
Protocol: Anti-TIM-3 antibodies were tested for their binding ability to human TIM-3 stably expressed on CHO-K1 cells. A Chinese hamster ovary epithelial CHO-K1 cell line (ATCC, cat# CCL-61) was maintained in F-12K medium containing 10% FBS in a humidified incubator with 5% CO₂ at 37° C. Polyethylenimine (MW25K, 23966-2, Polyscience) was diluted to 1 mg/mL, and added to and incubated with pcDNA3.1 vector containing TIM-3 cDNA (NP_116171.3) at 37° C. for 10 mins. The mixture was added to and incubated with cell culture for 3hrs for DNA transfection.
The anti-TIM-3 antibodies were serially diluted in PBS buffer with 0.5% BSA. The antibodies were added to and incubated with CHO-K1-TIM-3 cells at 4° C. for 30min. The cells were pelleted (3 minutes, 600×g), washed once using PBS buffer with 0.5% BSA and re-pelleted. Then, the cells were incubated with a PE conjugated AffiniPure Goat Anti-human IgG, Fcγ Fragment Specific (Jackson ImmunoResearch Cat#109-116-098) diluted at 1:100 at 4 ° C. for 30mins. Cells were washed twice as described above, resuspended in PBS buffer. The cells were then sent to the […] flow cytometer (BD Bioscience) for binding activity analysis. The EC₅₀ values were calculated.

[7] = target: C1q (Calbiochem, Cat#204876) (UniProt P02745 23-245; P02746 28-253; P02747 29-245); test: ELISA, antibody coated, C1q added, anti-C1q-HRP detection
[8] = target: T1, Human TIM-3 protein (Acrobiosystems, …); test: ELISA, human TIM-3 coated at 1 ug/mL, detection with peroxidase-labeled anti-human IgG, OD450-620
Protocol: as §3, §4, §2

Chain of C1q (Calbiochem, Cat#204876) (P02745 23-245, chain 1 of 3): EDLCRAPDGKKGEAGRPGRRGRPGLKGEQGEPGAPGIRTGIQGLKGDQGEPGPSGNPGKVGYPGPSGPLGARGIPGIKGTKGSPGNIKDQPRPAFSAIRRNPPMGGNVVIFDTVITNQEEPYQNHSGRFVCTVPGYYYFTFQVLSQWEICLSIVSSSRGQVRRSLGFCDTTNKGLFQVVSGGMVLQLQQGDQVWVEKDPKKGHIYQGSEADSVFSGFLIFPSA
Chain of C1q (Calbiochem, Cat#204876) (P02746 28-253, chain 2 of 3): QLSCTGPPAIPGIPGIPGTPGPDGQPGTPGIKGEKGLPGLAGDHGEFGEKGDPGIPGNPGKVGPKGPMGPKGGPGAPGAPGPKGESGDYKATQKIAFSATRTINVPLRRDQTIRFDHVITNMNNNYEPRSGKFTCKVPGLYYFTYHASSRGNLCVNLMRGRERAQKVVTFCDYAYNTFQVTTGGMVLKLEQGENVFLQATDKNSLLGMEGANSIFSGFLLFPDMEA
Chain of C1q (Calbiochem, Cat#204876) (P02747 29-245, chain 3 of 3): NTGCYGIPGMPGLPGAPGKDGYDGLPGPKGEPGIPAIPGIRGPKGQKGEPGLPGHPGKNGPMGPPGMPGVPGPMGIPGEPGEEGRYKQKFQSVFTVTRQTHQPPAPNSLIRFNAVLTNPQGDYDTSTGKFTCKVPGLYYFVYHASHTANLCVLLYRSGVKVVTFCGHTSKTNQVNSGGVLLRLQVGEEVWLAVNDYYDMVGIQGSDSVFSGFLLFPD

Row | Kd [1] [nM] | koff [1] [s⁻¹] | kon [1] [M⁻¹ s⁻¹] | EC50 [4] [nM] | IC50 [5] [nM] | Binder | other results
1 | 1.5 | 0.000344 | 230000 | – | – | anti-TIM-3 antibody TIM3-6.11 (antibody, human IgG1, lambda, L234A L235A, V domains shown) VH: QVQLVQSGAEVKKPGSSVKVSCKASGGTFSSYTIYWVRQAPGQGLEWMGSIIPILGTANYAQKFQGRVTITADESTSTAYMELSSLRSEDTAVYYCASASHTIWGQGTLVTVSS VL: QAVVTQEPSLTVSPGGTVTLTCASSTGAVTSGYTPNWFQQRPGQAPRALIYTTSNRHSWTPARFSGSLLGGKAALTLSGVQPEDEADYYCLLYYGGAWVFGGGTKLTVLG | –
2 | – | – | – | 9.24 | 1.88 | anti-TIM-3 antibody TIM3-6 (antibody, human IgG4 S228P, lambda, V domains shown, Full-length IgG expressed in CHO-S cells) VH: QVQLVQSGAEVKKPGSSVKVSCKASGGTFSSYTISWVRQAPGQGLEWMGRIIPILGTANYAQKFQGRVTITADESTSTAYMELSSLRSEDTAVYYCASASHTIWGKGTLVTVSS VL: QAVVTQEPSLTVSPGGTVTLTCASSTGAVTSGYSPNWFQQRPGQAPRALIYTTSNRHSWTPARFSGSLLGGKAALTLSGVQPEDEADYYCLLYYGGAWVFGGGTKLTVLG | binding result [2]: no binding; binding result [3]: no binding
3 | 1.66 | 0.00037 | 223000 | 0.0915 | – | anti-TIM-3 antibody TIM3-6.12 (antibody, human IgG1, lambda, L234A L235A, In the internalization assay the antibody carried pHAb amine reactive dye) heavy: not shown light: QAVVTQEPSLTVSPGGTVTLTCASSTGAVTSGYTPNWFQQRPGQAPRALIYTTNNRHSWTPARFSGSLLGGKAALTLSGVQPEDEADYYCLLYYGGAWVFGGGTKLTVLGQPKAAPSVTLFPPSSEELQANKATLVCLISDFYPGAVTVAWKADSSPVKAGVETTTPSKQSNNKYAASSYLSLTPEQWKSHRSYSCQVTHEGSTVEKTVAPTEC | EC50 [6]: 0.746 nM; binding result [7]: no binding
4 | 2.05 | 0.000415 | 202000 | – | – | anti-TIM-3 antibody TIM3-6.10 (antibody, human IgG1, lambda, L234A L235A, V domains shown) VH: QVQLVQSGAEVKKPGSSVKVSCKASGGTFSSYTIYWVRQAPGQGLEWMGSIIPILGTANYAQKFQGRVTITADESTSTAYMELSSLRSEDTAVYYCASASHTIWGQGTLVTVSS VL: QAVVTQEPSLTVSPGGTVTLTCASSTGAVTSGNTPNWFQQRPGQAPRALIYTTSNRHSWTPARFSGSLLGGKAALTLSGVQPEDEADYYCLLYYGGAWVFGGGTKLTVLG | –
5 | – | – | – | – | 5.87 | ABTIM3 analog (antibody, human IgG4 S228P, kappa, V domains shown) VH: QVQLVQSGAEVKKPGASVKVSCKASGYTFTSYNMHWVRQAPGQGLEWIGDIYPGSGDTSYNQKFKGRATMTADKSTSTVYMELSSLRSEDTAVYYCARVGGAFPMDYWGQGTLVTVSS VL: DIVLTQSPDSLAVSLGERATINCRASESVEYYGTSLMQWYQQKPGQPPKLLIYAASNVESGVPDRFSGSGSGTDFTLTISSLQAEDVAVYYCQQSRKDPSTFGGGTKVEIKR | EC50 [6]: 0.543 nM; EC50 (read off the curve) [8]: ~0.08 nM
6 | – | – | – | – | 4.73 | anti-TIM-3 antibody TIM3-4G7 (antibody, human IgG4 S228P, kappa, V domains shown, Full-length IgG) VH: EVQLVETGGGLVQPGGSLRLSCAASGFTFSSYAMSWVRQAPGKGLEWVSGISGSGGSTYYADSVKGRFTTSRDNSENTLYLQMNSLRAEDTAVYYCAGSYYDDAFDIWGQGTLVTVSS VL: ETTLTQSPATLSLSPGDTATLSCRASQSVTKDLVAWYQQRPGQAPRLLLYGASSRATGIPDRFSGSGSGTDFTLTISRLEPEDFAVYYCQQYGRSPLTFGGGTKVEIKR | EC50 (read off the curve) [8]: 2 to 3 nM
7 | – | – | – | 5.08 | 3.56 | anti-TIM-3 antibody TIM3-11 (antibody, human IgG4 S228P, lambda, V domains shown, Full-length IgG) VH: QVQLQQSGPGLVKPSQTLSLTCAISGDSVSSNSAAWNWIRQSPSRGLEWLGRTYYRSKWYNDYAVSVKSRITINPDTSKNQFSLQLNSVTPEDTAVYYCARDQAAGFPQPYIYGMDVWGKGTMVTVSS VL: LPVLTQPPSVSKGLRQTATLTCTGNSNNVGNQGAAWLQQHQGHPPKLLTYRTNNRPSGISERFSASRSGNTASLTITGLQPEDEADYYCSGWDSSLNEGVFGGGTKLTVLG | –
